The target in assay [1] is wild-type N-terminal domain (NT) of Euprosthenops australis major ampullate spidroin protein (MaSp) 1 (Euprosthenops australis). Description: SEC; Superdex 75, 2 mg ml^-1, 20 mM MES, 150 mM NaCl, 1 mM EDTA, pH 5.5, room temperature; monomer to dimer. For orientation: In gel filtration, larger molecules generally elute earlier.
Assay [2] has as its target constitutive dimer mutant NT_(E79QE84QE119Q) of the E. australis MaSp1 N-terminal domain (Euprosthenops australis). Description: SEC; Superdex 75, 2 mg ml^-1, 20 mM Tris, 150 mM NaCl, 1 mM EDTA, pH 8, room temperature; monomer to dimer.
Assay [3] shares this target. Description: SEC; Superdex 75, 2 mg ml^-1, 20 mM MES, 150 mM NaCl, 1 mM EDTA, pH 5.5, room temperature; monomer to dimer.
Assay [4] addresses recombinant fragment human surfactant protein D (human). The experiment in a line: SEC; Superdex 200, 1.5 mg ml^-1, 20 mM Tris, 150 mM NaCl, 1 mM EDTA, pH 8.
Assay [5] has the same target. The experiment in a line: native MS; ESI-MS of SEC separated protein in 100 mM ammonium acetate, pH 7.5.

One may read the stoichiometry N as a count of units in the complex or per binding partner. In assay [1], “wild-type N-terminal domain (NT) of Euprosthenops australis major ampullate spidroin protein (MaSp) 1 (domain or fragment)” registered a stoichiometry N of 2. For the substance “constitutive dimer mutant NT_(E79QE84QE119Q) of the E. australis MaSp1 N-terminal domain (domain or fragment)”, the stoichiometry N in assay [2] and in assay [3] was 2 each time. Turning to “recombinant fragment human surfactant protein D (domain or fragment)”, the stoichiometry N in assay [4] and in assay [5] was 3 in each case.

For the origin of these results see PMC5457526.
